# Measurements reported in patent US20210324015A1.
# Biological target: Pfs25 (Plasmodium falciparum) (UniProt P13829)
# Assay: cell-based or functional assay
# UniProt P13829, sequence (P13829 17-196): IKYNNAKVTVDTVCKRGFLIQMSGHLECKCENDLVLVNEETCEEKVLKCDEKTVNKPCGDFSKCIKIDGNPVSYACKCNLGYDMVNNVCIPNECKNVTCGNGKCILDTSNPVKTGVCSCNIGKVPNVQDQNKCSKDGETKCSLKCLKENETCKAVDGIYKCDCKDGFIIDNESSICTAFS
substance,measurement,value
anti-Pfs25 mAb 4B7 (antibody),"% inhibition estimate (standard membrane feeding assay, SMFA)",93.8%
